Values of other authors as cited in PMC7380111.

What was measured:
NRP2 (Homo sapiens) = NRP2 (Homo sapiens) (UniProt O60462)
NRP1 (Homo sapiens) = NRP1 (Homo sapiens) (UniProt O14786)
Chain of UniProt O14786 (O14786 22-923): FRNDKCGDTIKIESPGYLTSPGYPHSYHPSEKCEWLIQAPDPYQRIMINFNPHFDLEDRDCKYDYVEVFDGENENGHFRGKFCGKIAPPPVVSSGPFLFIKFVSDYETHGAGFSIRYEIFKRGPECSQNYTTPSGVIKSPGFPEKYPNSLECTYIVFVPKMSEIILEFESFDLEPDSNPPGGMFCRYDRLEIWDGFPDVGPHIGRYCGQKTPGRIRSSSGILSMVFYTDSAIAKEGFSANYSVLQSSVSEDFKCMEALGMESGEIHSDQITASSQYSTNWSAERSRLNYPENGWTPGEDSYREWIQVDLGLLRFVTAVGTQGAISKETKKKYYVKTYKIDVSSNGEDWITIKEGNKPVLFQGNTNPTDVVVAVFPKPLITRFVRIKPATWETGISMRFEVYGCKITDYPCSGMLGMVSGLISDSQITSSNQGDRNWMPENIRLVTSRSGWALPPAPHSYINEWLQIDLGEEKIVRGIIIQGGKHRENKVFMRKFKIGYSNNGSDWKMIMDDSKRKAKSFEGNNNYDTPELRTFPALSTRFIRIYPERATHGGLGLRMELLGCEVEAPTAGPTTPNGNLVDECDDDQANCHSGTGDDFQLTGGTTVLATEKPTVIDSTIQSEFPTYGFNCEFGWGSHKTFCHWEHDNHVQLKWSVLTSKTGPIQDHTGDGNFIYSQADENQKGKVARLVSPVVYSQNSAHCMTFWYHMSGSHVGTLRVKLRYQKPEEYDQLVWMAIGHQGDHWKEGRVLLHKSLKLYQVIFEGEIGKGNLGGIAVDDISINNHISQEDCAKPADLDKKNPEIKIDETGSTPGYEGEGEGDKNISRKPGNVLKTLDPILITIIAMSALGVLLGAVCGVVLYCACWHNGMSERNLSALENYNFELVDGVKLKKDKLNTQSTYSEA

Chain of UniProt O60462 (O60462 21-931): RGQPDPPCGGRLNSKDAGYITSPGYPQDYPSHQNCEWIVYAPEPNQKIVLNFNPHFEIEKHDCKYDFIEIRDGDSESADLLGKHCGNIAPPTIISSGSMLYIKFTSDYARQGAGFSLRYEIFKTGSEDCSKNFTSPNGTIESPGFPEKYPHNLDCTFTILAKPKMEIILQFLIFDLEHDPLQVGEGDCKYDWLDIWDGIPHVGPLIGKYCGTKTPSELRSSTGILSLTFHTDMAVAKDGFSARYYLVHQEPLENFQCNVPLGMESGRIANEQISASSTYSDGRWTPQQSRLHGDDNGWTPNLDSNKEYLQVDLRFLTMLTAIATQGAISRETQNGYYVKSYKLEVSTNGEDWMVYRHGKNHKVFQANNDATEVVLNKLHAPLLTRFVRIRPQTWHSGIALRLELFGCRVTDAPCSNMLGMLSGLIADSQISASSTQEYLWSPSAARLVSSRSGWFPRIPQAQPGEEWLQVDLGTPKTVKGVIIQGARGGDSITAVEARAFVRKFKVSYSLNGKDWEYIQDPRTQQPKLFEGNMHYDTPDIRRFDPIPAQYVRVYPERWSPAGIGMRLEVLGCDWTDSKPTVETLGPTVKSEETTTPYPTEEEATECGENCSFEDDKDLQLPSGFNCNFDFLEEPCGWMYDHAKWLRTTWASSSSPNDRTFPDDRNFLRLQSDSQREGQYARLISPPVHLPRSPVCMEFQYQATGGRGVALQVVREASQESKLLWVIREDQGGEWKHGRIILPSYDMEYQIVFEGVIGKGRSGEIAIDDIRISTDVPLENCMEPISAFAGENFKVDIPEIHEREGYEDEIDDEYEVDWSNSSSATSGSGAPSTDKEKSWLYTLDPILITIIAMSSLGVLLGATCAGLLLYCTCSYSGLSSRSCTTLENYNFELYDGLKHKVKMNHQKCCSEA

VEGF165 (from UniProt P15692)
Kd (NRP2 (Homo sapiens)): 5 nM | Kd (NRP1 (Homo sapiens)): 0.2 nM
